Results published in patent publication US20240392013A1 (STELEXIS THERAPEUTICS, published 2024).
Where a chain is given by its changes, count along the chain named.

B1: STLX2017 (antibody, V domains shown)
VH: EVQLVQSGAEVKKPGESLKISCKGSGYSFTSYWIGWVRQMPGKGLEWMGIIWPGDSDTRYSPSFQGQVTISADKSVNTAYLQWISLKASDTAIYYCARSSGGTAMDVWGQGTTVTVSS
VL: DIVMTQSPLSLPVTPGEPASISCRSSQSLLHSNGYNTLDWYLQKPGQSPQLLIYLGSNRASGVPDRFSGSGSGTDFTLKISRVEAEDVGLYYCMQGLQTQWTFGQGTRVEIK
notes: Purified from hybridoma of immunized Alivamab mice; intact IgG; captured on anti-mouse IgG Fc sensors in Octet; kappa light chain; also called 74804_17E20A
B2: STLX2009 (antibody, V domains shown)
VH: QVQLFQSGAEVKKPGASVKVSCKASGYTFTGYYVHWVRQAPGQGLEWMGWINPNSGGTDYAQKFQGRVTMTWDTSISTAYMELSRLRSDDTAVYYCARSYYYYGMDVWGQGTTVTVSS
VL: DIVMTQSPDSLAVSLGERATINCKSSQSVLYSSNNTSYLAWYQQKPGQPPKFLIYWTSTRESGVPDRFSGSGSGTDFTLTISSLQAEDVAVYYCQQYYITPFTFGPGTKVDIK
notes: Purified from hybridoma of immunized Alivamab mice; intact IgG; captured on anti-mouse IgG Fc sensors in Octet; kappa light chain; also called 74804_09H05A
B3: STLX2018 (antibody, V domains shown)
VH: QVQLVQSGAEVKKPGASVKVSCKTSGYTFTSCCMHWVRQAPGQGLEWMGIINPSVGSTSYAQKFQGIVTMTRDTSTSTVYMELSSLRSEDTAVYYCAVDSSGSRYYYGMDVWGQGTTVTVSS
VL: EIVMTQSPATLSVSPGERATLSCRASQSVRSNLAWYQQRPGQAPRLLIYGTSTRATGIPARFSGSGSGTEFTLTISSLQSEDFAVYYCQQYNYWPYTFGQGTKLEIK
notes: Purified from hybridoma of immunized Alivamab mice; intact IgG; captured on anti-mouse IgG Fc sensors in Octet; kappa light chain; also called 74804_18L05A

How the values were obtained:
[1] = target: T1, IL1RAP on HEK-Blue IL1β / HEK-Blue IL33 reporter cells (UniProt Q9NPH3 21-570, limits assumed); assay: cell-based or functional assay
T1 sequence (looked up): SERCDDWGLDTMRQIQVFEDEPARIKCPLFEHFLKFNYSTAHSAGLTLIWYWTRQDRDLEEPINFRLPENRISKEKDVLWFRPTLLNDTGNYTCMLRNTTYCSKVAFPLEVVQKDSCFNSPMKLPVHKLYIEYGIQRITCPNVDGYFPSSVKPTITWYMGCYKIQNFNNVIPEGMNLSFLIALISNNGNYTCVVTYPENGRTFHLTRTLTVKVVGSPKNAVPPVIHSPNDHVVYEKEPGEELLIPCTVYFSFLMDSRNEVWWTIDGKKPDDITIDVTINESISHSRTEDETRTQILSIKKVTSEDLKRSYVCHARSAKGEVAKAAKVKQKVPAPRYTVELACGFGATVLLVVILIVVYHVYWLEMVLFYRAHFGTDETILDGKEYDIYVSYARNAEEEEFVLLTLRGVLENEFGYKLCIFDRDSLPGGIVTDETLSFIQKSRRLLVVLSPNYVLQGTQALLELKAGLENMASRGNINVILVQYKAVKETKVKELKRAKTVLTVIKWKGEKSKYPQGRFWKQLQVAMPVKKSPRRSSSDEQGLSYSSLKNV

[2] = target: T2, recombinant human IL1RAP protein, extracellular domain His-tagged (Sino Biological, Cat #10121-H08H) (human, UniProt Q9NPH3 21-367); assay: Octet BLI; mAb captured on anti-mouse IgG Fc sensor; huIL1RAP-His analyte
T2 construct: extracellular domain; Bought protein; The Octet analyte is printed as huIL1RAP-His (Sino Biological, lot MB08MA1301) without a catalogue number; also called huIL1RAP-His; hIL1RAP; not shown: His tag
T2 sequence (looked up): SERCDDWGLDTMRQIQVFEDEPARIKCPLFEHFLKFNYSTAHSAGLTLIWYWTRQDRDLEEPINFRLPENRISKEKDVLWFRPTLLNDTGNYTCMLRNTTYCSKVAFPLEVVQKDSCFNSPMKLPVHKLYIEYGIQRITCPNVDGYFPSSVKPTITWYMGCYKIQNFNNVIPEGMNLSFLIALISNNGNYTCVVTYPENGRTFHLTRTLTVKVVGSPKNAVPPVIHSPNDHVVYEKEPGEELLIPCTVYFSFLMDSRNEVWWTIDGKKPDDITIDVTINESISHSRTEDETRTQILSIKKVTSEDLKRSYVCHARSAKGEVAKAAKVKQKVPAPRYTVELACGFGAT
Description: (§1) Antibodies were diluted in kinetics buffer (0.1% BSA, 0.02% Tween-20 and 0.05% NaN₃ in PBS) and loaded onto 16 channel anti-mouse IgG Fc capture sensors (AMC, Cat #2001073; Sartorius, Göttingen, Germany). Human, huIL1RAP-His (Sino Biological, lot: MB08MA1301), and monkey, cyIL1RAP-His (Lake Pharma, NY, USA; lot:16205819371) proteins were titrated starting from the highest concentration of 100 nM and followed by 50 nM and 25 nM. Purified antibodies were loaded at 5 μg/ml in kinetics buffer. The experimental parameters selected to determine the kinetic constants were Baseline for 60 s, Loading of antibody to sensor for 180 s, Association of analyte to antibody for 120 s, Dissociation for 1200 s and Regeneration in 10 mM Glycine pH 1.7 for 4×30 s.
(§2) Regeneration cycle tracking was selected for 12 cycles. Binding to human and cynomolgus IL1RAP was measured and KD (M) kinetics were calculated. Also, the disassociation rate (Kdis) (1/s) and association rate (Kon) (1/Ms) kinetics were calculated (data not shown).

[3] = target: T3, recombinant mouse IL1RAP protein (Sino Biological, Cat #52657-M08H) (mouse, UniProt Q61730 21-359); assay: cell-free ELISA, mouse IL1RAP coated; data not shown
T3 construct: Bought protein
T3 sequence (looked up): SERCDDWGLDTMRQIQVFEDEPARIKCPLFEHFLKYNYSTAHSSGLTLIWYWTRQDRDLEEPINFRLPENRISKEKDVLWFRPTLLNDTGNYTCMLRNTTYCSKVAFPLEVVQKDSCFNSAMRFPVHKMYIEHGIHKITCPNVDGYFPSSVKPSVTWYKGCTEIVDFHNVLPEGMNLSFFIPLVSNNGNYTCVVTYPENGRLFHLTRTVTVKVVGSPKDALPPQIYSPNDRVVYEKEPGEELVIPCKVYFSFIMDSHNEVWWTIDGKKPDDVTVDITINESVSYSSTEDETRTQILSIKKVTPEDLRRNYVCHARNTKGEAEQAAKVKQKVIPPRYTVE
Description: Recombinant human or mouse IL1RAP proteins (Sino Biological, Beijing, China; Cat #10121-H08H and Sino Biological, Cat #52657-M08H respectively) were diluted in PBS, pH 7.4 at concentration of 1 μg/ml, coated on high-binding 384-well clear plates and incubated overnight at 4° C. Following, plates were washed 3× with 0.05% Tween-20 in PBS, pH 7.5 and then blocked with 1% BSA in PBS for 1 hour at room temperature. After 3× washes, wells were incubated with each antibody at the highest concentration of 100 nM followed by seven serial half log dilutions (in 1% BSA and 0.05% Tween-20 in PBS) for 1 hour at room temperature. Plates were then washed 3× and incubated with […] detection antibody (Medna, TX, USA; Cat #D8212, 0.5 μg/ml diluted in 0.02% Tween-20 in PBS). After 5× washes, Supersignal ELISA Pico substrate (Thermofisher, MA, USA; Cat #37069) was applied to wells and chemiluminescent signal was read on Sprectramax L for 200 ms/well. Similarly, detection with specific κ and λ antibodies was conducted to define light chain isotyping.

[4] = target: T1, IL1RAP on HEK-Blue IL1β / HEK-Blue IL33 …; assay: cell-based or functional assay; remark: listed apart in the source
[5] = target: T4, cyIL1RAP-His (Lake Pharma) (cynomolgus monkey, UniProt A0A2K5X5J5 21-367); assay: Octet BLI; mAb captured on anti-mouse IgG Fc sensor; cyIL1RAP-His analyte
T4 construct: Bought protein (Lake Pharma, lot 16205819371); also called cynomolgus IL1RAP; monkey IL1RAP; not shown: His tag
T4 sequence: T2 sequence (looked up) with L183F, T273P, K326T
Description: as §1, §2

| Binder | IC50, HEK-BlueIL33 NFκB Reporter Assay [1] | Max % Inhibition at 200 nM, HEK-BlueIL33 NFκB Reporter Assay [1] [%] | Kd [2] [nM] | Response [2] | koff [2] [s⁻¹] | kon [2] [M⁻¹ s⁻¹] | binding result [3] | IC50, HEK-BlueIL1β NFκB Reporter Assay [4] | Max % Inhibition at 200 nM, HEK-BlueIL1β NFκB Reporter Assay [4] [%] | Kd [5] [nM] | Response [5] | koff [5] [s⁻¹] | kon [5] [M⁻¹ s⁻¹] |
| --- | --- | --- | --- | --- | --- | --- | --- | --- | --- | --- | --- | --- | --- |
| B1 | 4.82e-09 M (implied; unit not printed) | 80 | 0.83 | 0.17 | 0.000348 | 420000 | no binding (tested: 100 nM) | 8.19e-10 M (implied; unit not printed) | 101 | 0.739 | 0.192 | 0.000259 | 351000 |
| B2 | 1.1e-08 M (implied; unit not printed) | 74 | 1.64 | 0.205 | 0.000272 | 166000 | no binding (tested: 100 nM) | 2e-09 M (implied; unit not printed) | 99 | 2.87 | 0.219 | 0.000408 | 142000 |
| B3 | 4.81e-09 M (implied; unit not printed) | 93 | 1.62 | 0.17 | 0.00037 | 228000 | no binding (tested: 100 nM) | 1.73e-09 M (implied; unit not printed) | 99 | 4.32 | 0.168 | 0.000954 | 221000 |
